Values quoted from earlier work, collected in patent US20090291133A1, “METHODS AND COMPOSTIONS FOR ENHANCING TRANSDERMAL DRUG DELIVERY” (NATIONAL HEALTH RESEARCH INSTITUTES, priority 2008, published 2009).
Like-named read-outs stand apart in the source and are kept apart here.

Conditions: reported in US005534260A

B1: papain (protein, UniProt P00784 134-345, looked up)
Papain: IPEYVDWRQKGAVTPVKNQGSCGSCWAFSAVVTIEGIIKIRTGNLNEYSEQELLDCDRRSYGCNGGYPWSALQLVAQYGIHYRNTYPYEGVQRYCRSREKGPYAAKTDGVRQVQPYNEGALLYSIANQPVSVVLEAAGKDFQLYRGGIFVGPCGNKVDHAVAAVGYGPNYILIKNSWGTGWGENGYIRIKRGTGNSYGVCGLYTSSFYPVKN
notes: proteolytic enzyme used as permeability enhancer
safe concentration of papain (equivalent in solution): 4 µM
safe concentration of papain: around 0.093 mg/ml
